Reference: publication PMC7949025, “Biophysical characterization of the ETV6 PNT domain polymerization interfaces” (The Journal of Biological Chemistry, 2021)

B1: V112E-PNT domain (ETV6 residues 40-125 with the V112E mutation) (domain or fragment, human, UniProt P41212 40-125, looked up)
chain: ALRMEEDSIRLPAHLRLQPIYWSRDDVAQWLKWAENEFSLRPIDSNTFEMNGKALLLLTKEDFRYRSPHSGDELYELLQHILKQRK
notes: ETV6 PNT domain fragment, human, residues 40-125; expressed as residues 1-125 and cut by thrombin at the internal site V37-P38-R39/A40; 15N- or 13C/15N-labelled or unlabelled in NMR; also called V112E-PNT domain analyte; source: E. coli BL21 (λDE3), purified (Ni-NTA, thrombin cleavage, Superdex S75; size exclusion omitted for SPR); not shown: His6, N-terminal, cleaved
B2: E100A-V112E-PNT domain (domain or fragment, human, UniProt P41212 40-125, looked up)
chain: ALRMEEDSIRLPAHLRLQPIYWSRDDVAQWLKWAENEFSLRPIDSNTFEMNGKALLLLTKADFRYRSPHSGDELYELLQHILKQRK
notes: ETV6 PNT domain, human; source: E. coli BL21 (λDE3), purified (Ni-NTA, thrombin cleavage); not shown: His6, N-terminal, cleaved
B3: D101A-V112E-PNT domain (domain or fragment, human, UniProt P41212 40-125, looked up)
chain: ALRMEEDSIRLPAHLRLQPIYWSRDDVAQWLKWAENEFSLRPIDSNTFEMNGKALLLLTKEAFRYRSPHSGDELYELLQHILKQRK
notes: as for B2
B4: I59A-V112E-PNT domain (domain or fragment, human, UniProt P41212 40-125, looked up)
chain: ALRMEEDSIRLPAHLRLQPAYWSRDDVAQWLKWAENEFSLRPIDSNTFEMNGKALLLLTKEDFRYRSPHSGDELYELLQHILKQRK
notes: as for B2
B5: M89A-V112E-PNT domain (domain or fragment, human, UniProt P41212 40-125, looked up)
chain: ALRMEEDSIRLPAHLRLQPIYWSRDDVAQWLKWAENEFSLRPIDSNTFEANGKALLLLTKEDFRYRSPHSGDELYELLQHILKQRK
notes: as for B2
B6: L97A-V112E-PNT domain (domain or fragment, human, UniProt P41212 40-125, looked up)
chain: ALRMEEDSIRLPAHLRLQPIYWSRDDVAQWLKWAENEFSLRPIDSNTFEMNGKALLLATKEDFRYRSPHSGDELYELLQHILKQRK
notes: as for B2
B7: E88A-V112E-PNT domain (domain or fragment, human, UniProt P41212 40-125, looked up)
chain: ALRMEEDSIRLPAHLRLQPIYWSRDDVAQWLKWAENEFSLRPIDSNTFAMNGKALLLLTKEDFRYRSPHSGDELYELLQHILKQRK
notes: as for B2
B8: K92A-V112E-PNT domain (domain or fragment, human, UniProt P41212 40-125, looked up)
chain: ALRMEEDSIRLPAHLRLQPIYWSRDDVAQWLKWAENEFSLRPIDSNTFEMNGAALLLLTKEDFRYRSPHSGDELYELLQHILKQRK
notes: as for B2
B9: L96A-V112E-PNT domain (domain or fragment, human, UniProt P41212 40-125, looked up)
chain: ALRMEEDSIRLPAHLRLQPIYWSRDDVAQWLKWAENEFSLRPIDSNTFEMNGKALLALTKEDFRYRSPHSGDELYELLQHILKQRK
notes: as for B2
B10: A93D-PNT domain (ETV6 residues 40-125 with the A93D mutation) (domain or fragment, human, UniProt P41212 40-125, looked up)
chain: ALRMEEDSIRLPAHLRLQPIYWSRDDVAQWLKWAENEFSLRPIDSNTFEMNGKDLLLLTKEDFRYRSPHSGDVLYELLQHILKQRK
notes: ETV6 PNT domain fragment, human, residues 40-125; expressed as residues 1-125 and cut by thrombin at the internal site V37-P38-R39/A40; 15N- or 13C/15N-labelled or unlabelled in NMR; also called A93D-PNT domain analyte; source: E. coli BL21 (λDE3), purified (Ni-NTA, thrombin cleavage, Superdex S75; size exclusion omitted for SPR); not shown: His6, N-terminal, cleaved
B11: E100A-A93D-PNT domain (domain or fragment, human, UniProt P41212 40-125, looked up)
chain: ALRMEEDSIRLPAHLRLQPIYWSRDDVAQWLKWAENEFSLRPIDSNTFEMNGKDLLLLTKADFRYRSPHSGDVLYELLQHILKQRK
notes: as for B2
B12: H108A-A93D-PNT domain (domain or fragment, human, UniProt P41212 40-125, looked up)
chain: ALRMEEDSIRLPAHLRLQPIYWSRDDVAQWLKWAENEFSLRPIDSNTFEMNGKDLLLLTKEDFRYRSPASGDVLYELLQHILKQRK
notes: as for B2
B13: F77A-A93D-PNT domain (domain or fragment, human, UniProt P41212 40-125, looked up)
chain: ALRMEEDSIRLPAHLRLQPIYWSRDDVAQWLKWAENEASLRPIDSNTFEMNGKDLLLLTKEDFRYRSPHSGDVLYELLQHILKQRK
notes: as for B2
B14: L116A-A93D-PNT domain (domain or fragment, human, UniProt P41212 40-125, looked up)
chain: ALRMEEDSIRLPAHLRLQPIYWSRDDVAQWLKWAENEFSLRPIDSNTFEMNGKDLLLLTKEDFRYRSPHSGDVLYEALQHILKQRK
notes: ETV6 PNT domain, human; gene purchased commercially (Biomatik); source: E. coli BL21 (λDE3), purified (Ni-NTA, thrombin cleavage); not shown: His6, N-terminal, cleaved

These binders were tested against T1, biotinylated A93D-PNT domain (ETV6 residues 43-135, A93D, with Avitag) (human, UniProt P41212 43-135, A93D, biotin on the Avitag (~50 to 95% biotinylated)) (assay: SPR; biotinylated A93D-PNT domain ligand captured on streptavidin Sensor Chip SA, PNT domain analytes flowed; Biacore X100, 25 °C, HBS-EP+ (10 mM HEPES, 150 mM NaCl, 3 mM EDTA, 0.05% v/v Tween-20, pH 7.4); analyte 0.2-60 nM, re-run at 20-6000 nM if KD > 60 nM). Settings: both partners purified.
T1 construct: ETV6, human, residues 43-135; made from the V112E construct by introducing A93D and E112V; also called biotinylated A93D-PNT domain ligand; A93D-PNT domain ligand; source: E. coli BL21 (λDE3) co-transformed with pET21a-BirA, purified (Ni-NTA, thrombin cleavage); not shown: His6, N-terminal, cleaved; Avitag, N-terminal, kept
T1 sequence (looked up): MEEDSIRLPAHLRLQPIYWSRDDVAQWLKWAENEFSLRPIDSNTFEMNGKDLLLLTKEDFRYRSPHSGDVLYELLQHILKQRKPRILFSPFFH
In short: (§1)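 Biotinylated ETV6 PNT domain (residues 43-135, Avitag-biotinylated) was diluted to 50 μg/ml in HBS-EP+ and captured on a streptavidin Sensor Chip SA in a Biacore X100 at 25 °C. PNT domain analytes were flowed at 0.2, 2, 20, 40 and 60 nM, or re-run at 20-6000 nM when binding was weaker. Chips were regenerated with 0.2% SDS for 30 s. Association and dissociation rate constants and equilibrium dissociation constant came from the Biacore kinetics/affinity software wizard.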

B1 and B2 are within 1.5-fold of each other in Kd: 5.1 nM for the first, 7 nM for the second.

Compared with B3, B4 is 69-fold lower in Kd: 400 nM for the first, 5.8 nM for the second. The second binds more tightly here.

Going from B5 to B6, the Kd rises from 340 nM to 700 nM (2.1-fold). The first binds more tightly here.

Compared with B7, B8 is 7.7-fold higher in Kd: 8.1 nM for the first, 62 nM for the second. The first binds more tightly here.

B9 showed a Kd of 1000 nM.

Going from B1 to B2, the koff rises from 0.0023 s⁻¹ to 0.0035 s⁻¹ (1.5-fold).

B3 and B4 are the same in koff: 0.0025 s⁻¹ for the first, 0.0025 s⁻¹ for the second.

First: B5
Second: B6
The koff of the first is 2.1-fold lower: 0.033 s⁻¹ for the first, 0.068 s⁻¹ for the second.

Compared with B7, B8 is 5.5-fold higher in koff: 0.004 s⁻¹ for the first, 0.022 s⁻¹ for the second.

In the case of B9, the koff is reported as 0.0095 s⁻¹.

B1 and B2 are within 1.5-fold of each other in kon: 440000 M⁻¹ s⁻¹ for the first, 500000 M⁻¹ s⁻¹ for the second.

First: B3
Second: B4
The kon of the first is 68-fold lower: 6300 M⁻¹ s⁻¹ for the first, 430000 M⁻¹ s⁻¹ for the second.

B5 and B6 are within 1.5-fold of each other in kon: 97000 M⁻¹ s⁻¹ for the first, 98000 M⁻¹ s⁻¹ for the second.

B7 and B8 are within 1.5-fold of each other in kon: 500000 M⁻¹ s⁻¹ for the first, 350000 M⁻¹ s⁻¹ for the second.

Work on B9 yielded a kon of 9500 M⁻¹ s⁻¹.

The binders below were run against T2, biotinylated V112E-PNT domain (ETV6 residues 43-135, V112E, with Avitag) (human, UniProt P41212 43-135, V112E, biotin on the Avitag (~50 to 95% biotinylated)) (assay: SPR; biotinylated V112E-PNT domain ligand captured on streptavidin Sensor Chip SA, PNT domain analytes flowed; Biacore X100, 25 °C, HBS-EP+ (10 mM HEPES, 150 mM NaCl, 3 mM EDTA, 0.05% v/v Tween-20, pH 7.4); analyte 0.2-60 nM, re-run at 20-6000 nM if KD > 60 nM). Settings: both partners purified.
T2 construct: ETV6, human, residues 43-135 of V112E ETV6; also called biotinylated V112E-PNT domain ligand; V112E-PNT domain ligand; source: E. coli BL21 (λDE3) co-transformed with pET21a-BirA, purified (Ni-NTA, thrombin cleavage); not shown: His6, N-terminal, cleaved; Avitag, N-terminal, kept
T2 sequence (looked up): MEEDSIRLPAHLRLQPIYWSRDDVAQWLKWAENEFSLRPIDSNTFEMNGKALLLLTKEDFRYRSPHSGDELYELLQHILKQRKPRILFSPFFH
In short: as §1

First: B10
Second: B11
The Kd of the first is 1.5-fold higher: 7.5 nM for the first, 5 nM for the second.

First: B12
Second: B13
The Kd of the first is 83-fold lower: 5.4 nM for the first, 450 nM for the second.

B14 gave a Kd of 3.3 nM.

B10 and B11 are the same in koff: 0.0015 s⁻¹ for the first, 0.0015 s⁻¹ for the second.

Compared with B12, B13 is 11-fold higher in koff: 0.0014 s⁻¹ for the first, 0.015 s⁻¹ for the second.

B14 was tested, and the koff was 0.00076 s⁻¹.

Going from B10 to B11, the kon rises from 200000 M⁻¹ s⁻¹ to 310000 M⁻¹ s⁻¹ (1.6-fold).

First: B12
Second: B13
The kon of the first is 7.6-fold higher: 260000 M⁻¹ s⁻¹ for the first, 34000 M⁻¹ s⁻¹ for the second.

B14 was tested, and the kon was 230000 M⁻¹ s⁻¹.
